Experimental findings from paper PMC2844805 are described below.

In series [1] the test system is O=P(O)(O)OC[C@@H](O)[C@H]1O[C@@H](OP(=O)(O)O)[C@@H](O)[C@@H](O)[C@@H]1O. As to the kind of experiment: steady-state kinetics. Type of series: biochemical, Bordetella bronchiseptica. As to conditions: Mg2+; pH 7.5; 25.0 °C.
Series [2] has as its system O=P(O)(O)OC[C@@H](O)[C@H]1O[C@H](OP(=O)(O)O)[C@@H](O)[C@@H](O)[C@@H]1O. Put plainly: steady-state kinetics. Type of series: biochemical, Bordetella bronchiseptica. The note with it: Mg2+; pH 7.5; 25.0 °C.
Substrate in series [3]: O=P(O)(O)OC[C@@H](O)[C@H]1O[C@H](OP(=O)(O)O)[C@@H](O)[C@@H](O)[C@@H]1O
As to the kind of experiment: steady-state kinetics. Type of series: biochemical, Bacteroides thetaiotaomicron. As to conditions: Mg2+; pH 7.5; 25.0 °C.

Substrate in series [4]: O=P(O)(O)OC[C@@H](O)[C@H]1O[C@@H](OP(=O)(O)O)[C@@H](O)[C@@H](O)[C@@H]1O
Put plainly: steady-state kinetics. Type of series: biochemical, Bacteroides thetaiotaomicron. The note with it: Mg2+; pH 7.5; 25.0 °C.

Substrate in series [5]: O=P(O)(O)OC[C@@H](O)[C@H]1O[C@H](OP(=O)(O)O)[C@@H](O)[C@@H](O)[C@@H]1O
Put plainly: steady-state kinetics. Type of series: biochemical, Mesorhizobium japonicum. As to conditions: Mg2+; pH 7.5; 25.0 °C.

Substrate in series [6]: O=P(O)(O)OC[C@@H](O)[C@H]1O[C@@H](OP(=O)(O)O)[C@@H](O)[C@@H](O)[C@@H]1O
Put plainly: steady-state kinetics. Type of series: biochemical, Mesorhizobium japonicum. As to conditions: Mg2+; pH 7.5; 25.0 °C.

Substrate in series [7]: O=P(O)(O)OC[C@@H](O)[C@H]1O[C@H](OP(=O)(O)O)[C@@H](O)[C@@H](O)[C@@H]1O
As to the kind of experiment: purified protein. Type of series: biochemical, Escherichia coli. The note with it: Mg2+ C([…])phosphate selectively removed; pH 7.5; 25.0 °C.

Substrate in series [8]: O=P(O)(O)OC[C@@H](O)[C@H]1O[C@@H](OP(=O)(O)O)[C@@H](O)[C@@H](O)[C@@H]1O
Put plainly: purified protein. Type of series: biochemical, Escherichia coli. As to conditions: Mg2+ C([…])phosphate selectively removed; pH 7.5; 25.0 °C.

As a reminder, the Km is the concentration of substrate that gives half-maximal velocity. One may read the kcat as the maximal rate divided by the concentration of active sites. As a reminder, the kcat/Km is the turnover number divided by the Michaelis constant.

“D-glycero-D-manno-heptose-1β,7-bisphosphate phosphatase (GmhB) (Bordetella bronchiseptica RB50)”: in series [1], the Km amounted to 6.9 ± 0.5 µM, the kcat amounted to 22 ± 0.5 s⁻¹ and the kcat/Km was found to be 3.2e+06 M⁻¹ s⁻¹. Besides, in series [2], the Km worked out at 280 ± 30 µM, the kcat amounted to 5.9 ± 0.2 s⁻¹ and the kcat/Km is 21000 M⁻¹ s⁻¹.

B1: D-glycero-D-manno-heptose-1,7-bisphosphate phosphatase (GmhB) (Bacteroides thetaiotaomicron VPI-5482) (protein)
chain: MRLQDIDVTGFETLLLDRDGVVNRLRPDDYVKKWEEFEFLPGVLEILKAWNTHFKYIFIVTNQRGVGKEIMSEEDLKHIHERMISEVKNYGGRIDRIYYCTALTDSDINRKPGIGMFLQILRDYPDIDKAKCLMIGDSDSDIKFAKNCGIVGIKVI
In the case of B1, in “steady-state kinetics [3]”, the Km came to 33 ± 1 µM, the kcat was determined as 29 ± 1 s⁻¹ and the kcat/Km was 880000 M⁻¹ s⁻¹. In the series “steady-state kinetics [4]”, the Km was 86 ± 1 µM, the kcat was found to be 13 ± 1 s⁻¹ and the kcat/Km amounted to 150000 M⁻¹ s⁻¹.

B2: D-glycero-D-manno-heptose-1,7-bisphosphate phosphatase (GmhB) (Mesorhizobium japonicum MAFF 303099) (protein)
chain: MADKTGTPHPLTEPGVWIERIGGRVFPPHLPALFLDRDGTINVDTDYPSDPAEIVLRPQMLPAIATANRAGIPVVVVTNQSGIARGYFGWSAFAAVNGRVLELLREEGVFVDMVLACAYHEAGVGPLAIPDHPMRKPNPGMLVEAGKRLALDLQRSLIVGDKLADMQAGKRAGLAQGWLVDGEAAVQPGFAIRPLRDSSELGDLLAAIETLGRDNRS
With B2, in “steady-state kinetics [5]”, the Km came to 58 ± 1 µM, the kcat worked out at 4.4 ± 0.1 s⁻¹ and the kcat/Km was 76000 M⁻¹ s⁻¹. Also, in “steady-state kinetics [6]”, the Km was 13 ± 0.2 µM, the kcat came to 18 ± 0.2 s⁻¹ and the kcat/Km is 1.4e+06 M⁻¹ s⁻¹.

B3: D-glycero-D-manno-heptose-1,7-bisphosphate phosphatase (GmhB) (Escherichia coli K-12) (protein)
chain: MAKSVPAIFLDRDGTINVDHGYVHEIDNFEFIDGVIDAMRELKKMGFALVVVTNQSGIARGKFTEAQFETLTEWMDWSLADRDVDLDGIYYCPHHPQGSVEEFRQVCDCRKPHPGMLLSARDYLHIDMAASYMVGDKLEDMQAAVAANVGTKVLVRTGKPITPEAENAADWVLNSLADLPQAIKKQQKPAQ
B3: in “purified protein [7]”, the Km was determined as 67 ± 1 µM, the kcat worked out at 4.6 ± 0.1 s⁻¹ and the kcat/Km turned out to be 70000 M⁻¹ s⁻¹. In the series “purified protein [8]”, the Km came out at 5.0 ± 0.1 µM, the kcat is 35.7 ± 0.2 s⁻¹ and the kcat/Km is 7e+06 M⁻¹ s⁻¹.
